Measured values as given in EP2848684A1.

Biological target: NifDK complex purified from Azotobacter vinelandii (Azotobacter vinelandii) (UniProt P07328)
Assay: cell-based or functional assay

UniProt P07328, sequence (P07328 2-492 limits assumed, chain 1 of 2): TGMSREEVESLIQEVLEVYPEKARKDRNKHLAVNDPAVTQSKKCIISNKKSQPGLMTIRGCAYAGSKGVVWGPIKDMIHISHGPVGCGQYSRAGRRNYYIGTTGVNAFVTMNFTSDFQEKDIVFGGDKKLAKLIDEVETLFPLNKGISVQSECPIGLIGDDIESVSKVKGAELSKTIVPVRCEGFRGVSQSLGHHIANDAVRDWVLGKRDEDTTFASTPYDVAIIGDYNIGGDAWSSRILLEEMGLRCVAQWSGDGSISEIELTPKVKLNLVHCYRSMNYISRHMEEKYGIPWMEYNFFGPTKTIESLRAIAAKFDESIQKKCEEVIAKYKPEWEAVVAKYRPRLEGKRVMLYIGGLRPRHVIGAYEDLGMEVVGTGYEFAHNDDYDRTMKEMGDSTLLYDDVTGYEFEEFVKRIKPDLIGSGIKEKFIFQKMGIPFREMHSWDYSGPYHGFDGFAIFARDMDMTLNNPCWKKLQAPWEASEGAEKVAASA
UniProt P07328, sequence (P07329 2-523 limits assumed, chain 2 of 2, further chain): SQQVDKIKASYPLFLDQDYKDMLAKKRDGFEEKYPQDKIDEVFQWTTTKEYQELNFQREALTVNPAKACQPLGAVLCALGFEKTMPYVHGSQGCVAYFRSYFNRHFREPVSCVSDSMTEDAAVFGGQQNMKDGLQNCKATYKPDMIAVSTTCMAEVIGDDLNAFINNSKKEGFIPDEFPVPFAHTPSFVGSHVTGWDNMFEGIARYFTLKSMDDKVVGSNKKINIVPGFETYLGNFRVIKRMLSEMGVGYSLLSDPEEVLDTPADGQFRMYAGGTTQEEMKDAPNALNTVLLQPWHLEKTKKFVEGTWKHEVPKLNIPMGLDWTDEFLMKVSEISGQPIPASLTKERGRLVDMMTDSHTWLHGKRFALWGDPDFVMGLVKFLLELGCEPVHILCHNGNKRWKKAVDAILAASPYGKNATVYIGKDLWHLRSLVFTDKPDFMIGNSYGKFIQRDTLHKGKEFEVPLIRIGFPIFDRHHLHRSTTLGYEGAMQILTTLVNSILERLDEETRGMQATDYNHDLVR

Ammonia	RFU (Relative Fluorescence Units, ammonia detection)	Substance
179 nmol/mL	1300 RFU	NifH protein purified from Azotobacter vinelandii (from UniProt P00459 2-290) (enzyme)
200 nmol/mL	1460 RFU	NifH purified from recombinant Saccharomyces cerevisiae GF2 cells (mlsSOD2-his8-NifH, A. vinelandii NifH sequence) (from UniProt P00459 1-290) (enzyme)
